The results in this text go back to paper PMC5590460.

The test has as its target recombinant MUC5AC C terminus protein (human). Kind of test: SDS-PAGE under non-reducing and reducing conditions with western blot; purified recombinant protein from cell lysates and cell supernatants run reduced and non-reduced on 6% Bis-Tris acrylamide or 3%-8% Tris-Acetate gels, transferred to PVDF, probed with a His antibody. A general note: Immunoblotting shows a protein as a band on a membrane.

As for “recombinant MUC5AC C terminus protein (domain or fragment)”, the stoichiometry N (usually the number of molecules, sites or subunits per partner or assembly) was 2.
